Data taken from PMC8044209.

Experiments:
Med15 ABD2 (yeast) = Med15 ABD2 (yeast) (UniProt P19659); assay: ITC; Gal4 AD in the syringe (1.11 mM), Med15 domain in the cell (ABD1 0.102 mM; ABD2 0.11 mM); 22 °C; 20 mM KH2PO4 pH 7.5, 200 mM KCl; single binding site model
Med15 ABD1 (yeast) = Med15 ABD1 (yeast) (UniProt P19659); assay: as above
[1] = biological target: Gal4 AD (residues 828–881) labeled with Oregon Green 488 (yeast) (UniProt P04386); assay: fluorescence polarisation; Oregon Green 488-labelled Gal4 AD; 15 concentrations of Med15 spanning 0–250 μM; 22 °C; 20 mM KH2PO4 pH 7.5, 200 mM KCl; one-site total binding model
[2] = biological target: Gal4 AD (Gal4 residues 828–881) (yeast) (UniProt P04386); assay: NMR titration; (1H,15N)- and (1H,13C)-HSQC titrations; unlabeled Gal4 AD or ABD added to ~200 μM 13C,15N-labelled AD or ABD; 25 °C; 20 mM sodium phosphate, 150 mM NaCl, 0.1 mM EDTA, 5 mM DTT, pH 6.5
[3] = biological target: Gcn4 tAD (Saccharomyces cerevisiae) (UniProt P03069); assay: FP; conditions: cited from earlier work
[4] = biological target: Gcn4 cAD (Saccharomyces cerevisiae) (UniProt P03069); assay: FP; conditions: cited from earlier work
[5] = biological target: Gcn4 nAD (Saccharomyces cerevisiae) (UniProt P03069); assay: FP; conditions: cited from earlier work

## Gal4 AD (Gal4 residues 828–881) (from UniProt P04386 828-881) (domain or fragment)
Med15 ABD2 (yeast)
  Kd: 35 µM
Med15 ABD1 (yeast)
  Kd: 9.2 µM

## Med15 158–651 Δ239–272, Δ373–483 (ABD123) (from UniProt P19659 158-651) (domain or fragment)
[1]
  Kd: 2.04 µM

## Med15 484–651 (ABD3) (from UniProt P19659 484-651) (domain or fragment)
[1]
  Kd: 16.2 µM

## Med15 ABD1 (from UniProt P19659 158-238) (domain or fragment)
[1]
  Kd: 9.24 µM
[2]
  exchange rate: > 250 s⁻¹
  lifetime of the bound state: < 4 ms

## Med15 ABD1 (from UniProt P19659)
[3]
  Kd: 2.66 µM
[4]
  Kd: 2.5 µM
[5]
  Kd: 3.3 µM

## Med15 ABD2 (from UniProt P19659 277-368) (domain or fragment)
[1]
  Kd: 98 µM

## Med15 ABD2 (from UniProt P19659)
[3]
  Kd: 19.5 µM
[4]
  Kd: 147 µM
[5]
  Kd: 21.8 µM

## Med15 ABD3 (from UniProt P19659)
[3]
  Kd: 4.4 µM
[4]
  Kd: 13.9 µM
[5]
  Kd: 2.6 µM

## Med15 ABD123 (from UniProt P19659)
[5]
  Kd: 0.36 µM
